# Experimental data from patent US20140242095A1.
# Target: human SIRPα V1 expressed on cells (NOR mouse macrophages or CHO cells) (human) (UniProt P78324)
# Assay: cell-based binding assay (NOR mouse macrophages)
# Design: unit not given beside the values
# Conditions: Fc fusion
# Sequence of human CD47-Fc fusion protein (Q08722 19-141): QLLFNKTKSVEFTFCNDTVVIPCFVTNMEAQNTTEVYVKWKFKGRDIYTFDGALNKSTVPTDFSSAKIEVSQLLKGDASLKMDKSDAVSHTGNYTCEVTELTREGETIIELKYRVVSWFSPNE
# Sequence of human SIRPα V1 expressed on cells (NOR mouse macrophages or CHO cells) (human) (P78324 31-504): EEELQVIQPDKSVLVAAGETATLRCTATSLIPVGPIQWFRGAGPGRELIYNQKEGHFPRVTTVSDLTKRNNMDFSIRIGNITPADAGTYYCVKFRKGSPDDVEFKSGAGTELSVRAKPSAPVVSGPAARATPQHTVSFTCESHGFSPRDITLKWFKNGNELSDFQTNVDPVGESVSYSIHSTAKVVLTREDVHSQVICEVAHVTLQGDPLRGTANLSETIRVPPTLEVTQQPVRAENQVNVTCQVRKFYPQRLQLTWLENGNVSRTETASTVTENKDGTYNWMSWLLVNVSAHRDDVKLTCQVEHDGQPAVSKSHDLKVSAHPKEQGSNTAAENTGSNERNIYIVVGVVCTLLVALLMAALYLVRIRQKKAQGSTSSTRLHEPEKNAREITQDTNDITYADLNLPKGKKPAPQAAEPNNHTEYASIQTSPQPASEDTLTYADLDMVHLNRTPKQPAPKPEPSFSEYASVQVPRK
substance,measurement,value
human CD47-Fc fusion protein (from UniProt Q08722 19-141),Kd,8.7 ?
